Values of other authors, collected in paper PMC10889394.
Blank lines part the entries; values can stand above or below the substance they belong to.

Columns and labels:
TIMP-2 (Homo sapiens) = TIMP-2 (Homo sapiens) (UniProt P16035)
[1] = biological target: SFTI-TCTR-N12N14 (synthetic construct)
[2] = biological target: SFTI-1 (Helianthus annuus) (UniProt Q4GWU5)
[3] = biological target: cystatin E (Homo sapiens) (UniProt Q15828)
[4] = biological target: recombinant hirudin variant 1 (Hirudo medicinalis) (UniProt P01050)

β-trypsin, sequence (P00760 149-246): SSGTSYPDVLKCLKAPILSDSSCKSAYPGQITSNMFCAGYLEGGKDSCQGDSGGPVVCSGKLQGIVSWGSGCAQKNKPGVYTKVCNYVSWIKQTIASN
cystatin E (Homo sapiens), sequence (Q15828 29-149): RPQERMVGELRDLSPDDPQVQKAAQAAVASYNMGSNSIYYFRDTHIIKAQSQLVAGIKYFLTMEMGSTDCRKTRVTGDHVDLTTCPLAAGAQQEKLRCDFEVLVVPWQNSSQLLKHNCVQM
TIMP-2 (Homo sapiens), sequence (P16035 27-220): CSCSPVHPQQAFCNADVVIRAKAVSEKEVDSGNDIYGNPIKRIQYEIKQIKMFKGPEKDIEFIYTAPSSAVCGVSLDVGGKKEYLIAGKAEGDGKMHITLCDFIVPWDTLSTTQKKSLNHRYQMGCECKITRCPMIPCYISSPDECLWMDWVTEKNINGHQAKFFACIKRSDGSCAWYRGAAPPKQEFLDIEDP

- Ki (TIMP-2 (Homo sapiens)): 0.104 nM
Substance: MMP-14 catalytic domain (from UniProt P50281)

- Ki [1]: 0.7 nM
- Ki [2]: 0.017 nM
Substance: β-trypsin (from UniProt P00760)

- Ki [3]: 0.011 nM
Substance: legumain (from UniProt Q99538)

Substance: thrombin (from UniProt P00734)
- Ki [4]: 0.00018 nM
